From patent publication US20060222643A1 (Chugai, published 2006)
No end group written: not given here.

T1: MG10 (Gln213 to Ala231)-GST fusion protein (human, also: fused with GST)
T1 construct: As MG1; also called MG10-GST fusion protein; GST fusion protein containing MG10; not shown: glutathione-S-transferase of vector pGEX-4T-3 (Amersham Biosciences)
T1 chain: QPTMPWQDGPKQTSPSREA

T2: human Mpl expressed on BaF3 cells (BaF3-human Mpl) (human, UniProt P40238 26-635)
T2 sequence: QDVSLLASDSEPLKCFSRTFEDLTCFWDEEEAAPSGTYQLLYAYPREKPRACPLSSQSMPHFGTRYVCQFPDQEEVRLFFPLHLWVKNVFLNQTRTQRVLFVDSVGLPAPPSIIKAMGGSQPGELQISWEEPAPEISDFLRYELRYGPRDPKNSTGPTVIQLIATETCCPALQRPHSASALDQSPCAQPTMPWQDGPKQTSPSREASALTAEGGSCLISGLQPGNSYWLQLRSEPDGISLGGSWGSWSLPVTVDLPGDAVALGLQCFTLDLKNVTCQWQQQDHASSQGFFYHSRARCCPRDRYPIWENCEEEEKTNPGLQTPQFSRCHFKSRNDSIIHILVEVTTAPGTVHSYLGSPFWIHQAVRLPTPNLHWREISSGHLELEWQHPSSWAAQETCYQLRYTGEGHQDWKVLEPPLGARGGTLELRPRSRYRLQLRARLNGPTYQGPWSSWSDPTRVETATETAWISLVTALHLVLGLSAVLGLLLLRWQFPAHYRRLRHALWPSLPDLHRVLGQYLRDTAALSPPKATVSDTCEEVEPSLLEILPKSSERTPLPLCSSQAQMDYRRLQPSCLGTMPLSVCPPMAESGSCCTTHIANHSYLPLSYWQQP

T3: mouse Mpl expressed on CHO cells (CHO-mouse Mpl) (mouse, UniProt Q08351 26-625)
T3 construct: whole, on cells; pCXND3-mouse Mpl-His in CHO-DG44; also called mouse Mpl-His
T3 sequence (looked up): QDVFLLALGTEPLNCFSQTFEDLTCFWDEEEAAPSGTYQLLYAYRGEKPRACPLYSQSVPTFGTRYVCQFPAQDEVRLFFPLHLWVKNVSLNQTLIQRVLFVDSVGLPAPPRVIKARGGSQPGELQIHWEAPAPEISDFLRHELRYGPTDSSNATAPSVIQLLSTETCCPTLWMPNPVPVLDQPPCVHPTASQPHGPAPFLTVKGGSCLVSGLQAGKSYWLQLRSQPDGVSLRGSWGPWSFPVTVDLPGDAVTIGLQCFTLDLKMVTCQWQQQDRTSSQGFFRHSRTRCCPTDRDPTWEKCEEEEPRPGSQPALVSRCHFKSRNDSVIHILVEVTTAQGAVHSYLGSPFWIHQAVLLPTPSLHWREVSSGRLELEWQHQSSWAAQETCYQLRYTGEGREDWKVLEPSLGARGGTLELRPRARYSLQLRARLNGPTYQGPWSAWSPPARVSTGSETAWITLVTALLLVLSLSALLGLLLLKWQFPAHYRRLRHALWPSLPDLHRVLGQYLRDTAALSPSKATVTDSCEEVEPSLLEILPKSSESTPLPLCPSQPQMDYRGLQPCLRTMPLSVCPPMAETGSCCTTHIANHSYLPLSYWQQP

T4: cynomolgus monkey Mpl expressed on CHO cells (CHO-monkey Mpl) (cynomolgus monkey, UniProt P40238 26-635 (human entry))
T4 construct: pCXND3-monkey Mpl-His in CHO-DG44; also called monkey Mpl-His
T4 chain: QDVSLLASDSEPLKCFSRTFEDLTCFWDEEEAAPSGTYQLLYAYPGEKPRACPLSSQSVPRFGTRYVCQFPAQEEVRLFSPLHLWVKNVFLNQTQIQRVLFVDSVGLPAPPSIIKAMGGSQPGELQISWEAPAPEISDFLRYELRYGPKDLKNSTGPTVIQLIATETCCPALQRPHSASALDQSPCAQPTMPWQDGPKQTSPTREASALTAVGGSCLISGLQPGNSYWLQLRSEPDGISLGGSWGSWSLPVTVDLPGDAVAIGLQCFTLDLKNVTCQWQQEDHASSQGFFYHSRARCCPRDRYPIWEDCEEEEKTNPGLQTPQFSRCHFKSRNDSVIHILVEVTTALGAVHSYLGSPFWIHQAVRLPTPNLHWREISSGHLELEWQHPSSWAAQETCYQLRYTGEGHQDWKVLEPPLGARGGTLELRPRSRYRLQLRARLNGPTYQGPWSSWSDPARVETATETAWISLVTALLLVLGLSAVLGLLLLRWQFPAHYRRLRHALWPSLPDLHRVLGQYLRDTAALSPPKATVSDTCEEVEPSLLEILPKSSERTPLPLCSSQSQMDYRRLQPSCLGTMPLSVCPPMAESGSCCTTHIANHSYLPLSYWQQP


Legend:
[1] = target: human Mpl expressed on BaF3 cells (BaF3-human Mpl) (human) (UniProt P40238); assay: cell-based or functional assay
[2] = target: T1, MG10 (Gln213 to Ala231)-GST fusion …; assay: SPR, Biacore 3000, MG10-GST immobilized on CM5, Bivalent analyte model (constants as for the monovalent antibody), triplicate
Procedure: The Sensor Chip CM5 (Biacore) was placed in Biacore 3000 (Biacore), and MG10-GST fusion protein was immobilized onto the chip by amine-coupling methods. HBS-EP Buffer (Biacore) was used as the running buffer, and the flow rate was 20 μL/min. 5.5 to 175.0 nM of VB22B IgG solution was prepared using HBS-EP Buffer, and injected over each of the chip surfaces for 2 min to obtain the binding region at the respective concentrations. Then, dissociation region for the 2 minutes was measured. VB22B IgG bound to the MG10-GST fusion protein on the sensor chip was removed by injecting 20 mM HCl over the sensor chip for 1 min, and the chip was recovered. Similarly, 4.7 to 150.1 nM of VB22B sc(Fv)2, 5.3 to 168.9 nM of hVB22B q-wz5 sc(Fv)2, and 4.9 to 156.8 nM of hVB22B u2-wz4 sc(Fv)2 were prepared and injected over the chip surfaces onto which MG10-GST fusion protein was immobilized, and the measurement was carried out.
All the antibodies used were bivalent antibodies, and thus the sensorgrams at each concentration were obtained in the presence of both monovalent and bivalent bindings. In this context, the reaction rate constant was determined as that for the monovalent antibody by analysis using the Bivalent analyte model of BIAevaluation ver.3.1 software (Biacore). The above analysis was carried out in triplicates for each antibody. The binding rate constant (ka), dissociation rate constant (kd), and dissociation constant (KD) were determined as those for the monovalent antibody by the procedure described above. The constants are indicated below in Table 1.

[3] = target: T2, human Mpl expressed on BaF3 cells …; assay: cell-based or functional assay
[4] = target: T3, mouse Mpl expressed on CHO cells …; assay: flow cytometry on CHO-mouse Mpl cells; COS7 culture supernatant; detection with anti-FLAG M2 antibody and FITC-labeled anti-mouse IgG
Procedure: (§1) CHO-human Mpl, CHO-monkey Mpl, and CHO-mouse Mpl cells were recovered and suspended in FACS buffer (1% FBS/PBS) to a final concentration of 1×10⁶ cells/mL. Cell suspensions were aliquoted at 100-μL/well into the Multiscreen-HV Filter Plates (Millipore). After centrifugation, the supernatant was removed. An appropriate concentration of diabody or sc(Fv)2 was added into each well and incubated on ice for 30 min. The cells were washed once with 200 μL of FACS buffer, and incubated on ice for 30 min following the addition of 10 μg/mL ANTI-FLAG® M2 Monoclonal Antibody (Sigma-Aldrich). The cells were then washed once with 200 μL of FACS buffer, and a 100×-diluted FITC-labeled anti-mouse IgG antibody (Beckman Coulter) was added to the plate. The plate was incubated on ice for 30 min. After centrifugation, the supernatant was removed. The cells were suspended in 400 μL of FACS Buffer, and then analyzed by flow cytometry using EPICS ELITE ESP (Beckman Coulter). An analysis gate was set on the forward and side scatters of a histogram to include viable cell populations.
(§2) The binding activities of the diabodies were assessed by flow cytometry using CHO cells that express Mpl derived from various species (FIG. 8). AB317 was proven to bind to CHO-mouse Mpl.

[5] = target: T4, cynomolgus monkey Mpl expressed on CHO …; assay: flow cytometry on CHO-monkey Mpl cells; COS7 culture supernatant; detection with anti-FLAG M2 antibody and FITC-labeled anti-mouse IgG
Procedure: as §1, §2

[6] = target: T4, cynomolgus monkey Mpl expressed on CHO …; assay: flow cytometry on CHO cells, detection by anti-FLAG M2 and FITC anti-mouse IgG
Procedure: as §1
(§3) The binding activity of the purified VB22B sc(Fv)2 to various Mpl molecules expressed in CHO cells was determined (FIG. 2).

[7] = target: T3, mouse Mpl expressed on CHO cells …; assay: as above
Procedure: as §1, §3

Row | agonistic activity, EC50 (growth of BaF3-human Mpl, WST-8) [1] | Kd [2] | koff [2] | kon [2] | TPO-like agonistic activity, EC50 (growth of BaF3-human Mpl, WST-8) [3] | binding result [4] | binding result [5] | binding result [6] | binding result [7] | Molecule
1 | 0.076 nM | – | – | – | – | – | – | – | – | recombinant human thrombopoietin (rhTPO, R&D) (from UniProt P40225 22-353) (ligand)
2 | – | 13.6 nM | 0.0051 s⁻¹ | 376000 M⁻¹ s⁻¹ | – | – | – | – | – | hVB22B q-wz5 sc(Fv)2 (scFv, Humanized sc(Fv)2 without Flag tag, purified on an MG10-GST column; also called humanized VB22B sc(Fv)2 (q-wz5)) QVQLVQSGPEVKKPGASVKVSCKASGYTFTNSWMNWVRQRPGKGLEWIGRIYPGDGETIYNGKFRVRVTITADESTSTAYMELSSLRSEDTAVYYCARGYDDYSFAYWGQGTTVTVSSGGGGSGGGGSGGGGSDIVMTQSPLSLPVTPGEPASISCRSSKSLLHSNGNTYLYWFQQKPGQAPRLLIYRMSNLASGVPDRFSGSGSGTAFTLKISRVEAEDVGVYYCMQHIEYPFTFGQGTKLEIKGGGGSGGGGSGGGGSQVQLVQSGPEVKKPGASVKVSCKASGYTFTNSWMNWVRQRPGKGLEWIGRIYPGDGETIYNGKFRVRVTITADESTSTAYMELSSLRSEDTAVYYCARGYDDYSFAYWGQGTTVTVSSGGGGSGGGGSGGGGSDIVMTQSPLSLPVTPGEPASISCRSSKSLLHSNGNTYLYWFQQKPGQAPRLLIYRMSNLASGVPDRFSGSGSGTAFTLKISRVEAEDVGVYYCMQHIEYPFTFGQGTKLEIK
3 | – | 10.2 nM | 0.00617 s⁻¹ | 608000 M⁻¹ s⁻¹ | – | – | – | – | – | hVB22B u2-wz4 sc(Fv)2 (scFv, Humanized sc(Fv)2 without Flag tag, purified on an MG10-GST column; also called humanized VB22B sc(Fv)2 (u2-wz4)) QVQLVQSGPEVKKPGASVKVSCKASGYTFTNSWMNWVRQRPGKGLEWIGRIYPGDGETIYNGKFRVRVTITADESTSTAYMQLSSLRSEDTAVYYCARGYDDYSFAYWGQGTTVTVSSGGGGSGGGGSGGGGSDIVMTQSPLSLPVTPGEPASISCRSSKSLLHSNGNTYLYWFLQKPGQSPQLLIYRMSNLASGVPDRFSGSGSGTDFTLKISRVEAEDVGVYYCMQHIEYPFTFGQGTKLEIKGGGGSGGGGSGGGGSQVQLVQSGPEVKKPGASVKVSCKASGYTFTNSWMNWVRQRPGKGLEWIGRIYPGDGETIYNGKFRVRVTITADESTSTAYMQLSSLRSEDTAVYYCARGYDDYSFAYWGQGTTVTVSSGGGGSGGGGSGGGGSDIVMTQSPLSLPVTPGEPASISCRSSKSLLHSNGNTYLYWFLQKPGQSPQLLIYRMSNLASGVPDRFSGSGSGTDFTLKISRVEAEDVGVYYCMQHIEYPFTFGQGTKLEIK
4 | – | – | – | – | 0.061 nM | no binding | binds | – | – | VB22B diabody (scFv, also called VB22B db; VB22B single-chain Fv) scFv: QVQLQQSGPELVKPGASVKISCKASGYAFTNSWMNWVKQRPGKGLEWIGRIYPGDGETIYNGKFRVKATLTADKSSSTAYMDISSLTSEDSAVYFCARGYDDYSFAYWGQGTLVTVSAGGGGSDIVMTQAAPSIPVTPGESVSISCRSSKSLLHSNGNTYLYWFLQRPGQSPQLLIYRMSNLASGVPDRFSGSGSGTAFTLRISRVEAEDVGVYYCMQHIEYPFTFGSGTKLEIK
5 | – | 11.7 nM | 0.00491 s⁻¹ | 423000 M⁻¹ s⁻¹ | 0.027 nM | – | – | binds | no binding | VB22B sc(Fv)2 (scFv, Single-chain (Fv)2 with 15-residue linkers, purified on anti-Flag gel (FLAG-tagged); also called murine VB22B sc(Fv)2; anti-human Mpl sc(Fv)2) QVQLQQSGPELVKPGASVKISCKASGYAFTNSWMNWVKQRPGKGLEWIGRIYPGDGETIYNGKFRVKATLTADKSSSTAYMDISSLTSEDSAVYFCARGYDDYSFAYWGQGTLVTVSAGGGGSGGGGSGGGGSDIVMTQAAPSIPVTPGESVSISCRSSKSLLHSNGNTYLYWFLQRPGQSPQLLIYRMSNLASGVPDRFSGSGSGTAFTLRISRVEAEDVGVYYCMQHIEYPFTFGSGTKLEIKGGGGSGGGGSGGGGSQVQLQQSGPELVKPGASVKISCKASGYAFTNSWMNWVKQRPGKGLEWIGRIYPGDGETIYNGKFRVKATLTADKSSSTAYMDISSLTSEDSAVYFCARGYDDYSFAYWGQGTLVTVSAGGGGSGGGGSGGGGSDIVMTQAAPSIPVTPGESVSISCRSSKSLLHSNGNTYLYWFLQRPGQSPQLLIYRMSNLASGVPDRFSGSGSGTAFTLRISRVEAEDVGVYYCMQHIEYPFTFGSGTKLEIK
